Experimental data taken from the supplement of paper PMC10057847, “Precision engineering of biological function with large-scale measurements and machine learning” (PLOS ONE, 2023).
“And” between values parts separate entries of the source, which are not always exact repeats. Equal entries are not always repeated. ± gives the uncertainty stated by the source.

B1: library; the commonest letter at each place (parent)
chain: MKPVTLYDVAEYAGVSYQTVSRVVNQASHVSAKTREKVEAAMAELNYIPNRVAQQLAGKQSLLIGVATSSLALHAPSQIVAAIKSRADQLGASVVVSMVERSGVEACKAAVHNLLAQRVSGLIINYPLDDQDAIAVEAACTNVPALFLDVSDQTPINSIIFSHEDGTRLGVEHLVALGHQQIALLAGPLSSVSARLRLAGWHKYLTRNQIQPIAEREGDWSAMSGFQQTMQMLNEGIVPTAMLVANDQMALGAMRAITESGLRVGADISVVGYDDTEDSSCYIPPLTTIKQDFRLLGQTSVDRLLQLSQGQAVKGNQLLPVSLVKRKTTLAPNTQTASPRALADSLMQLARQVSRLESGQ

Assays:
Details in all cases: with IPTG
IPTG [1] = variants of: B1
Procedure: (§1)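 LacI variants on the pVER plasmid regulate eYFP behind lacO in E. coli MG1655Δlac, grown in rich M9 at 37 °C with a 2-fold IPTG dilution series. After two 160-min growth steps, YFP is read by flow cytometry and calibrated to MEF. Bayesian MCMC fits of the Hill equation give G0, G∞, EC50 and n (posterior mean ± SD).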

IPTG [2] = variants of: B1; test: Hill coefficient n (dimensionless); higher = steeper dose response
Procedure: as §1

IPTG [3] = variants of: B1; test: basal output G0 (YFP, no IPTG) (log10 MEF); higher = higher reporter expression without inducer
Procedure: as §1

IPTG [4] = variants of: B1; test: saturating output G-infinity (YFP) (log10 MEF); higher = higher reporter expression at saturating IPTG
Procedure: as §1

Row | Variant | EC50 for IPTG (log10 µmol/L) (IPTG [1]) | Hill coefficient n (IPTG [2]) | basal output G0 (log10) (IPTG [3]) | saturating output G-infinity (log10) (IPTG [4])
1 | V24L V52M A72T A214V I268V K325Q P332H A337V | 1.467 ± 0.0061 | 1.59 ± 0.03 | 2.62 ± 0.054 | 4.2255 ± 0.002
2 | A27T A87T S102G N316I L330P Q352R | 1.04 ± 0.011 | 1.44 ± 0.038 | 3.624 ± 0.013 | 4.5229 ± 0.003
3 | S28G T34M Q60R A81S E100K L148V S221N V271L | 0.477 and 0.475 | 1.41 and 2.02 | 3.92 | 4.46 and 4.41
4 | E36V Q89H D132G A138D E277A Q306E S322T | 2.315 ± 0.02 | 1.54 ± 0.044 | 2.12 ± 0.15 | 4.363 ± 0.01
5 | E39D N208D A222V | 1.37 ± 0.022 | 1.55 ± 0.079 | 3.1 ± 0.043 | 4.484 ± 0.0081
6 | M42I | 2.437 ± 0.015 | 1.43 ± 0.046 | 0.821 ± 0.6 | 4.148 ± 0.0056
7 | M42I R51C | 1.496 ± 0.014 | 1.6 ± 0.058 | 3.21 ± 0.035 | 4.511 ± 0.0051
8 | M42L V66I S93N D132V | 1.646 ± 0.0068 | 1.59 ± 0.033 | 2.55 ± 0.058 | 4.1768 ± 0.0024
9 | E44D R101G R303S R355L | 1.62 ± 0.023 | 1.53 ± 0.093 | 2.44 ± 0.76 | 4.461 ± 0.0089
10 | R51C | 0.988 ± 0.036 | 1.44 ± 0.14 | 3.91 ± 0.021 | 4.49 ± 0.0086
11 | R51H | 1.19 ± 0.02 | 1.46 ± 0.061 | 3.701 ± 0.013 | 4.63 ± 0.0066
12 | Q55H D130E V192A T258I D267N Y273H N333I | 2.889 ± 0.028 | 1.39 ± 0.097 | 4.402 ± 0.0063 | 3.681 ± 0.016
13 | Q55K G121V N333I | 1.78 ± 0.031 | 1.58 ± 0.092 | 2.37 ± 0.36 | 4.393 ± 0.012
14 | L56M | 1.05 ± 0.033 | 1.39 ± 0.12 | 3.976 ± 0.018 | 4.548 ± 0.0075
15 | L56M A194V | 2.393 ± 0.016 | 1.42 ± 0.045 | 3.9036 ± 0.0036 | 4.549 ± 0.0059
16 | L56M D130E | 0.886 ± 0.058 | 1.42 ± 0.21 | 4.026 ± 0.027 | 4.51 ± 0.011
17 | L56M Q317L | 1.07 ± 0.085 | 1.44 ± 0.3 | 3.96 ± 0.044 | 4.485 ± 0.018
18 | Q60R N113S R207G R216G V271M L307I A350T | 2.236 ± 0.011 | 1.62 ± 0.029 | 2.28 ± 0.058 | 4.401 ± 0.0051
19 | L62M A109V D149E M242V P285S Q317R | 2.91 ± 0.051 | 1.37 ± 0.066 | 2.56 ± 0.042 | 4.412 ± 0.028
20 | I64V V95M Q131R T141A D152E N208I A222T L295M K327N | 0.469 ± 0.011 | 1.55 ± 0.075 | 3.589 ± 0.011 | 4.4894 ± 0.0031

Row | Variant | EC50 for IPTG (log10 µmol/L) (IPTG [1]) | Hill coefficient n (IPTG [2]) | basal output G0 (log10) (IPTG [3]) | saturating output G-infinity (log10) (IPTG [4])
21 | T68I | 1.41 ± 0.045 | 1.28 ± 0.1 | 3.24 ± 0.054 | 4.419 ± 0.015
22 | S69F | 1.05 ± 0.042 | 1.51 ± 0.14 | 2.66 ± 0.67 | 4.379 ± 0.015
23 | S69F V95A A110E I159S | 1.109 ± 0.01 | 1.64 ± 0.055 | 2.8 ± 0.081 | 4.2252 ± 0.003
24 | S69T | 1.7 ± 0.018 | 1.64 ± 0.06 | 2.07 ± 0.53 | 4.406 ± 0.0077
25 | S69T I83M | 2.293 ± 0.009 | 1.48 ± 0.033 | 1.02 ± 0.61 | 4.2699 ± 0.0031
26 | S69T I83M S97T | 1.957 ± 0.0053 | 1.61 ± 0.017 | 1.17 ± 0.54 | 4.4073 ± 0.0024
27 | S69T L169P | 2.348 ± 0.019 | 1.43 ± 0.062 | 2.68 ± 0.082 | 4.362 ± 0.0071
28 | S69T S97T | 1.37 ± 0.019 | 1.55 ± 0.059 | 2.65 ± 0.11 | 4.496 ± 0.0072
29 | S69T S279T | 1.28 ± 0.013 | 1.56 ± 0.053 | 2.7 ± 0.11 | 4.428 ± 0.0047
30 | S69T V80L | 1.75 ± 0.025 | 1.38 ± 0.066 | 1.09 ± 0.68 | 4.182 ± 0.0044
31 | S70R | 1.42 ± 0.021 | 1.44 ± 0.064 | 2.58 ± 0.09 | 4.22 ± 0.0077
32 | S70R A87P V301M E357G | 3.59 ± 0.015 | 1.66 ± 0.081 | 4.5727 ± 0.004 | 3.672 ± 0.019
33 | S70R F161V | 2.02 ± 0.013 | 1.29 ± 0.039 | 3.01 ± 0.037 | 4.3852 ± 0.0042
34 | S70R I83F | 1.24 ± 0.028 | 1.36 ± 0.079 | 3.18 ± 0.04 | 4.347 ± 0.0092
35 | S70R N208Y | 1.444 ± 0.0064 | 1.46 ± 0.026 | 2.66 ± 0.045 | 4.2522 ± 0.0022
36 | S70R Q181H | 1.49 ± 0.03 | 1.46 ± 0.12 | 2.55 ± 0.62 | 4.269 ± 0.011
37 | S70R Q231R | 1.509 ± 0.0064 | 1.47 ± 0.025 | 2.67 ± 0.037 | 4.251 ± 0.0022
38 | S70R S97T | 1.16 ± 0.037 | 1.37 ± 0.1 | 3.15 ± 0.062 | 4.362 ± 0.012
39 | S70R S97T F161V | 1.71 ± 0.068 | 1.16 ± 0.12 | 3.29 ± 0.059 | 4.429 ± 0.023
40 | S70R S190C | 1.547 ± 0.0043 | 1.47 ± 0.017 | 2.64 ± 0.029 | 4.2816 ± 0.0016

Row | Variant | EC50 for IPTG (log10 µmol/L) (IPTG [1]) | Hill coefficient n (IPTG [2]) | basal output G0 (log10) (IPTG [3]) | saturating output G-infinity (log10) (IPTG [4])
41 | S70R V96E T154I S158R V238D M254I V264I | 3.671 ± 0.018 | 3 ± 0.23 | 4.516 ± 0.0061 | 3.396 ± 0.026
42 | S70R V136E | 1.841 ± 0.017 | 1.69 ± 0.085 | 4.55 ± 0.0061 | 3.806 ± 0.01
43 | S70R V150A S190T F226L | 0.971 ± 0.021 | 1.48 ± 0.089 | 3.37 ± 0.035 | 4.221 ± 0.0049
44 | S70R V271M | 1.521 ± 0.012 | 1.46 ± 0.044 | 2.7 ± 0.066 | 4.268 ± 0.0045
45 | A72V A110V N142D S322L | 0.557 ± 0.022 | 1.42 ± 0.1 | 3.778 ± 0.015 | 4.443 ± 0.0049
46 | A72V K84N I210F M254T T336S | 0.962 ± 0.049 | 0.934 ± 0.078 | 4.369 ± 0.0082 | 4.067 ± 0.0058
47 | H74Y A92V H112L S151T D165N H179Q | 1.29 ± 0.014 | 1.54 ± 0.049 | 4.426 ± 0.0049 | 3.262 ± 0.017
48 | P76Q V150A N157D Q181H I210L M254T I283N | 2.23 ± 0.046 | 1.11 ± 0.11 | 4.237 ± 0.007 | 3.925 ± 0.008
49 | S77P E105V | 2.049 ± 0.0095 | 1.59 ± 0.043 | 2.53 ± 0.067 | 4.1995 ± 0.004
50 | V80L | 2.098 ± 0.0098 | 1.52 ± 0.036 | 1.75 ± 0.28 | 3.914 ± 0.0043
51 | V80L A87P V301M E357G | 1.57 ± 0.045 | 1.15 ± 0.079 | 4.52 ± 0.015 | 3.493 ± 0.02
52 | V80L I83M | 2.444 ± 0.013 | 1.37 ± 0.045 | 0.521 ± 0.46 | 3.718 ± 0.0043
53 | V80L I83M S97T | 1.986 ± 0.0056 | 1.55 ± 0.025 | 1.99 ± 0.077 | 3.8535 ± 0.0021
54 | V80L L169P | 2.47 ± 0.026 | 1.2 ± 0.077 | 1.86 ± 0.58 | 3.696 ± 0.0083
55 | V80L S97T | 1.611 ± 0.0061 | 1.57 ± 0.031 | 2.33 ± 0.069 | 4.0264 ± 0.0022
56 | V80L S279T | 1.566 ± 0.0048 | 1.56 ± 0.023 | 2.07 ± 0.088 | 3.9365 ± 0.0017
57 | V80L V96E T154I S158R V238D M254I V264I | 1.68 ± 0.055 | 1.16 ± 0.085 | 4.207 ± 0.016 | 3.07 ± 0.031
58 | A82G | 2.576 ± 0.011 | 1.3 ± 0.021 | 2.51 ± 0.036 | 4.414 ± 0.0045
59 | A82V | 1.93 ± 0.025 | 1.51 ± 0.075 | 1.71 ± 0.7 | 4.252 ± 0.01
60 | I83F | 1.29 ± 0.02 | 1.43 ± 0.06 | 2.91 ± 0.064 | 4.434 ± 0.0071
